Assay results taken from US20030148956A1 (PROCTER AND GAMBLE, published 2003).
Ends that are not written are not given here.

T1: corticotropin releasing factor 2 receptor
T1 sequence (Q13324 whole entry, species assumed, looked up): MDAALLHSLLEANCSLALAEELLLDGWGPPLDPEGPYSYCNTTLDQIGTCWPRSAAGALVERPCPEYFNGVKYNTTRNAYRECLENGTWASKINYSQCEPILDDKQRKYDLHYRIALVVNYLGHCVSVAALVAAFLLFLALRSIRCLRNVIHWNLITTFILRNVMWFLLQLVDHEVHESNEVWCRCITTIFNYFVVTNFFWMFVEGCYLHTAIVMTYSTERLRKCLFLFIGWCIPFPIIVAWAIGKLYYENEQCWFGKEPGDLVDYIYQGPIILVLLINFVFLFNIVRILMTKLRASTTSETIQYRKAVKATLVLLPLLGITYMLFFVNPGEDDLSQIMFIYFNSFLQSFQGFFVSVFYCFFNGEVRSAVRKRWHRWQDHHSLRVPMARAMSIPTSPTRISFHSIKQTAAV


Key:
[1] = target: corticotropin releasing factor 1 receptor; test: cell-based or functional assay
[2] = target: T1, corticotropin releasing factor 2 …; test: cell-based or functional assay

Row | Binder | CRF1R EC50 [1] | CRF1R Emax % [1] | CRF2R EC50 [2] | CRF2R Emax % [2]
1 | DNPSLSIDLPLQLLRTLLELEKTQSQRERAEQNAIIFASV-NH2 [SEQ ID NO 342] | 1000 nM | 19.6% | 20.2 nM | 92.2%
2 | IVLSLDVPIGLLQILLEQARHAAAHAAAHAQAHILAHV-NH2 [SEQ ID NO 367] | 1000 nM | 6% | 100 nM | 18%
3 | IVLSLDVSIGLLQILLEQARARAAREQATTNARILARV-NH2 [SEQ ID NO 370] | 1000 nM | 33% | 51 nM | 75%
4 | IVLSLDVPIGLLQILLEQARHAHAHAHAHAQAHILAHV-NH2 [SEQ ID NO 369] | 1000 nM | 4% | 100 nM | 18%
5 | DNPSLSIDLPLILLRTLLELEKTQSQRERAEQNAIIFASV-NH2 [SEQ ID NO 345] | 1000 nM | 18.8% | 39.7 nM | 100%
6 | IVLSLDVPIGLLQILLEQARARAAREQATTNARILARVM-NH2 [SEQ ID NO 368] | 1000 nM |  | 50.4 nM | 
7 | Ac-DNPSLSIDLPLLLLRTLLELEKTQSQRERAEQNAIIFASV-NH2 [SEQ ID NO 347] | 1000 nM |  | 22.4 nM | 
8 | Ac-IVLSLDVPIGLLQILLEQARARAAREQATTNARILARV-NH2 [SEQ ID NO 354] | 1000 nM | 13.4% | 6.48 nM | 100%
9 | IVLSLDVPIGLLQILLEQARARAAREQATTNARILARVM-NH2 [SEQ ID NO 356] | 1000 nM |  | 83 nM | 
10 | DNPSLSIDLPLFLLRTLLELEKTQSQRERAEQNAIIFASV-NH2 [SEQ ID NO 343] | 783 nM | 62.5% | 13.6 nM | 96.5%
11 | IVLSLDVPIGLLQILLEKAAAEAEAAAKAAQEQILAHV-NH2 [SEQ ID NO 366] | 1000 nM | 9% | 100 nM | 46%
12 | ZGPPISIDLPFQLLRILIEIEKQEKEKQQAANNALLLAT (C-terminal amide) [SEQ ID NO 358] | 99 nM | 100% | 5.56 nM | 100%
13 | Ac-PSLSIDLPLLLLRTLLELEKTQSQRERAEQNAIIFASV-NH2 [SEQ ID NO 348] | 630 nM |  | 5.77 nM | 
14 | DNPSLSIDLPLLLLRTLLELEKTQSQRERAEQNAIIFASV-NH2 [SEQ ID NO 346] | 1000 nM |  | 8.48 nM | 
15 | IVLSLDVPIHLLQILLEQARARAAREQATTNARILARV-NH2 [SEQ ID NO 371] | 1000 nM | 22% | 6.62 nM | 97%
16 | DNPSLSIDLPLLLLRTLLELEKTQSQRERAEQNARIFARV-NH2 [SEQ ID NO 341] | 850 nM | 82.3% | 8.83 nM | 95.5%
17 | DNPSLSIDLPLLLLRTLLELARTQSQRERAEQNARIFARV-NH2 [SEQ ID NO 340] | 740 nM | 96% | 7.99 nM | 100%
18 | ZGPPISIDLPLQLLRKVIEIEKQEKEKQQAANNALLLATI (C-terminal amide) [SEQ ID NO 349] | 1000 nM | 44.2% | 13.8 nM | 100%
19 | ZGPPISIDLPFQLLRLLIEIEKQEKEKQQAANNALLLATI (C-terminal amide) [SEQ ID NO 360] | 157 nM | 100% | 6.12 nM | 93%

Row | Binder | CRF1R EC50 [1] | CRF1R Emax % [1] | CRF2R EC50 [2] | CRF2R Emax % [2]
20 | ZGPPISIDLPFQLLRKVIEIEKQEKEKQQAANNALLLDTI (C-terminal amide) [SEQ ID NO 350] | 1000 nM | 48% | 11.6 nM | 98.1%
21 | ZGPPISIDLSLELLRKMIEIEKQEKEKQQAANNRLLLDTI (C-terminal amide) [SEQ ID NO 355] | 18 nM | 100% | 6.03 nM | 95%
22 | ZGPPISIDVPYWLLRKVIEIEKQEKEKQQAANNARLLDTI (C-terminal amide) [SEQ ID NO 372] | 1000 nM | 13% | 14.2 nM | 100%
23 | ZGPPISIDLPFQLLRKLIEIEKQEKEKQQAANNALLLATI (C-terminal amide) [SEQ ID NO 357] | 331 nM | 100% | 6.44 nM | 100%
24 | ZGPPISIDVPYHLLRKVIEIEKQEKEKQQAANNARLLDTI (C-terminal amide) [SEQ ID NO 376] | 1000 nM | 8% | 52.5 nM | 100%
25 | ZGPPISIDLPFQLLRKAIEIEKQEKEKQQAANNALLLDTI (C-terminal amide) [SEQ ID NO 365] | 1000 nM | 21% | 23.4 nM | 94%
26 | ZGPPISIDLPFQLLREVIEIEKQEKEKQQAANNALLLATI (C-terminal amide) [SEQ ID NO 359] | 230 nM | 100% | 23.1 nM | 100%
27 | ZGPPISIDVPYWLLRKVIEIEKQEKEKQQAANNARLLARI (C-terminal amide) [SEQ ID NO 373] | 1000 nM | 9% | 11.5 nM | 100%
28 | ZGPPISIDLPFQLLRVLIEIEKQEKEKQQAANNALLLATI (C-terminal amide) [SEQ ID NO 361] | 149 nM | 100% | 6.37 nM | 99%
29 | ZGPPISIDLPFQLLRKVIEIEKQEKEKQQAANNALLLATI (C-terminal amide) [SEQ ID NO 352] | 780 nM | 82.6% | 8.26 nM | 83.7%
30 | ZGPPISIDLPFQLLRKAIEIEKQEKEKQQAANNALLLATI (C-terminal amide) [SEQ ID NO 364] | 1000 nM | 27% | 13.2 nM | 100%
31 | ZGPPISIDVPYQLLRKVIEIEKQEKEKQQAANNARLLDTI (C-terminal amide) [SEQ ID NO 374] | 1000 nM | 11% | 15.8 nM | 91%
32 | ZGPPISIDLPFQLLRKIIEIEKQEKEKQQAANNALLLATI (C-terminal amide) [SEQ ID NO 362] | 386 nM | 100% | 4.39 nM | 100%
33 | ZGPPISIDVPYQLLRKVIEIEKQEKEKQQAANNARLLARI (C-terminal amide) [SEQ ID NO 375] | 1000 nM | 22% | 11.5 nM | 100%
34 | PSLSIDLPLLLLRTLLELEKTQSQRERAEQNAIIFASV-NH2 [SEQ ID NO 344] | 650 nM |  | 4.3 nM | 
35 | ZGPPISIDLPFQLLRKVIEIEKQEKEKQQATTNARLLDRV (C-terminal amide) [SEQ ID NO 351] | 1000 nM | 85.7% | 12.9 nM | 97.4%
36 | ZGPPISIDLPLYLLRKMIEIEKQEKEKQQATTNARILARV (C-terminal amide) [SEQ ID NO 353] | 230 nM | 92.2% | 4.75 nM | 89.9%
37 | ZGPPISIDLPFQLLRKAIEIEKQEKEKQQATTNARLLDRV (C-terminal amide) [SEQ ID NO 363] | 1000 nM | 20% | 25.1 nM | 100%
38 | DNPSLSIDLPQYLLRTLLELARTQSQRERAEQNAIIFASV-NH2 [SEQ ID NO 339] | 1000 nM | 13.2% | 100 nM | 47.9%
